Target: the molecule itself
Assay: SEC-MALS

B1: His6-tagged (Δ1-39)hTHEM4 (enzyme, human, UniProt Q5T1C6 40-240, looked up)
chain: EVILKDCSVPNPSWNKDLRLLFDQFMKKCEDGSWKRLPSYKRTPTEWIQDFKTHFLDPKLMKEEQMSQAQLFTRSFDDGLGFEYVMFYNDIEKRMVCLFQGGPYLEGPPGFIHGGAIATMIDATVGMCAMMAGGIVMTANLNINYKRPIPLCSVVMINSQLDKVEGRKFFVSCNVQSVDEKTLYSEATSLFIKLNPAKSLT
- stoichiometry N: 2

Source: PMC4066673 (Biochemistry, 2012)
